Data from publication PMC11376383, “Transcription factor ZmEREB97 regulates nitrate uptake in maize (Zea mays) roots”.

B1: Motif 1 probe (WT) (dsDNA)
DNA 1: CTCGGTCCACGCCGCCCGTCGGGGTTCG
DNA 2: CGAACCCCGACGGGCGGCGTGGACCGAG
B2: ZmNRT3.1A promoter probe (dsDNA)
DNA 1: CACCAGCACCGGCGCCGCCATTCGCCCCCTG
DNA 2: CAGGGGGCGAATGGCGGCGCCGGTGCTGGTG
B3: ZmNRT1.2 promoter probe (dsDNA)
DNA 1: CCACCGCACTGTCGCCGCCGTGCAGGCTCCA
DNA 2: TGGAGCCTGCACGGCGGCGACAGTGCGGTGG
B4: ZmNRT1.1A promoter probe (dsDNA)
DNA 1: ATATATAGCGGGGCGCCGCCCACCCGGCGGAGC
DNA 2: GCTCCGCCGGGTGGGCGGCGCCCCGCTATATAT
B5: ZmNRT2.5 promoter probe (dsDNA)
DNA 1: GCCGCGCCCGCTGCCGCCTCCCAGCTCGCT
DNA 2: AGCGAGCTGGGAGGCGGCAGCGGGCGCGGC
B6: ZmNRT1.1B promoter probe (dsDNA)
DNA 1: AACAGGAGCACCCGCCGCCATGCTGCTCGCT
DNA 2: AGCGAGCAGCATGGCGGCGGGTGCTCCTGTT
B7: ZmNRT2.1 promoter probe (dsDNA)
DNA 1: CCAGCAGCAGCAGCCGACTAAACGGCATAGA
DNA 2: TCTATGCCGTTTAGTCGGCTGCTGCTGCTGG

Target: T1, ZmEREB97 (Zea mays (B73_v3 gene model; cDNA …, UniProt C4J4G2 1-222)
Experiment: EMSA; EMSA/Gel Shift Binding Buffer (Beyotime; composition, salt and pH not stated), 25 C, 20 min, about 80 ng protein, 2.5 ng probe
Settings: protein: recombinant; tags: 6xHis (pCold); label: 5'-biotin

T1 sequence (C4J4G2 entry or part of it): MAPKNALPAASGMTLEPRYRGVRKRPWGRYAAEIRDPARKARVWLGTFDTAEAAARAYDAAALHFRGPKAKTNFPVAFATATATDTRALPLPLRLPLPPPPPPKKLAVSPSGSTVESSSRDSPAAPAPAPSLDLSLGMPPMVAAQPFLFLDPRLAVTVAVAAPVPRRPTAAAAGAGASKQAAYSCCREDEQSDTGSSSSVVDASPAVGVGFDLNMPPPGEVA

Binding result, binds:
B1

Target: T1, ZmEREB97
Experiment: EMSA; partially competed by 50-fold cold probe; EMSA/Gel Shift Binding Buffer (Beyotime; composition, salt and pH not stated), 25 C, 20 min, about 80 ng protein, 2.5 ng probe
Settings: protein: recombinant; tags: 6xHis (pCold); label: 5'-biotin

Binding result, binds:
B2
B3
B4
B5
B6
B7
